Measured values as given in publication doi:10.1101/2020.09.30.318261.

Biological target: SARS-CoV prefusion stabilised spike ectodomain trimer (SARS-CoV) (UniProt P59594)
Assay: cryo-EM structure

Substance: SARS-CoV prefusion stabilised spike ectodomain trimer (from UniProt P59594 14-1160) (domain or fragment)
- stoichiometry N: 3
